# According to patent US20060122119A1 (INSTITUT NAT L DE LA SANTE ET DE LA RECHERCHE MED, published 2006):
# B1: NY-ESO-1 peptide 92-104 LAMPFATPMEAEL (peptide)
# peptide: LAMPFATPMEAEL
# notes: synthetic peptide; also called 13-mer 92-104
# B2: tyrosinase peptide 309-322 TPRLPSSADVEFCL (peptide)
# peptide: TPRLPSSADVEFCL
# notes: synthetic peptide; also called 14-mer 309-322
# B3: NY-ESO-1 peptide 94-104 MPFATPMEAEL (peptide)
# peptide: MPFATPMEAEL
# notes: synthetic peptide; also called 11-mer 94-104
# B4: NY-ESO-1 peptide 94-102 MPFATPMEA (peptide)
# peptide: MPFATPMEA
# notes: synthetic peptide; also called nonamer 94-102
# B5: tyrosinase peptide 309-321 TPRLPSSADVEFC (peptide)
# peptide: TPRLPSSADVEFC
# notes: synthetic peptide; also called 13-mer 309-321
# B6: tyrosinase peptide 309-320 TPRLPSSADVEF (peptide)
# peptide: TPRLPSSADVEF
# notes: synthetic peptide; also called 12-mer 309-320
# B7: NY-ESO-1 peptide 92-103 LAMPFATPMEAE (peptide)
# peptide: LAMPFATPMEAE
# notes: synthetic peptide; also called 12-mer 92-103
# B8: NY-ESO-1 peptide 94-103 MPFATPMEAE (peptide)
# peptide: MPFATPMEAE
# notes: synthetic peptide; also called decamer 94-103
# Biological target: HLA-B*3501 (human)
row,Binder,RA (relative affinity)
1,VPLDCVLYR (synthetic peptide) [gp100 peptide 471-479 VPLDCVLYR],20
2,B1,0.58
3,LPSSADVEF (synthetic peptide) [tyrosinase peptide 312-320 LPSSADVEF],1.25
4,B2,> 20
5,B3,1.32
6,B4,0.4
7,VPLDCVLYRY (synthetic peptide) [gp100 peptide 471-480 VPLDCVLYRY],2.6
8,B5,16.7
9,B6,1.3
10,EAAGIGILY (synthetic modified peptide) [modified Melan-A peptide 26-34 EAAGIGILY],1.32
11,EPAGIGILY (synthetic modified peptide) [modified Melan-A peptide 26-34 EPAGIGILY],0.4
12,EVDPIGHVY (synthetic peptide) [MAGE-A6 peptide 168-176 EVDPIGHVY],1.1

# Biological target: HLA-B*3501 (human)
# Remark: another data set of the same source
row,Binder,Stability (half-life of the peptide on HLA-B*35)
1,VPLDCVLYR (synthetic peptide) [gp100 peptide 471-479 VPLDCVLYR],< 0.5 h
2,B1,> 6 h
3,LPSSADVEF (synthetic peptide) [tyrosinase peptide 312-320 LPSSADVEF],6 h
4,B2,> 6 h
5,B3,> 6 h
6,B7,> 6 h
7,B4,> 6 h
8,VPLDCVLYRY (synthetic peptide) [gp100 peptide 471-480 VPLDCVLYRY],> 6 h
9,B5,< 0.5 h
10,B6,> 6 h
11,B8,> 6 h
12,EAAGIGILY (synthetic modified peptide) [modified Melan-A peptide 26-34 EAAGIGILY],> 6 h
13,EPAGIGILY (synthetic modified peptide) [modified Melan-A peptide 26-34 EPAGIGILY],> 6 h
14,EVDPIGHVY (synthetic peptide) [MAGE-A6 peptide 168-176 EVDPIGHVY],6 h

# Biological target: HLA-B*3501 (human)
# Remark: another data set of the same source
row,Binder,binding result
1,"QVPLDCVLYR (synthetic peptide, 70% purity) [gp100 peptide 470-479 QVPLDCVLYR]",no binding
